From patent US6858210B1, “Therapeutic and diagnostic domain 1 β2GPI polypeptides and methods of using same” (La Jolla Pharmaceutical Co., priority 1998, dated 2005)
Where two headings read alike, the source gives them in different places.

Assays:
[1] = tested on: affinity purified β2GPI-dependent antiphospholipid antibody; test: Direct binding ELISA, nickel chelate-coated wells charged with recombinant β2GPI proteins (no cardiolipin); parameters: species or system human; details: O.D. at 550 nm
Experimental: (§1) Nickel Chelate-coated microwell plates (NCP 010 00 Xenopore Corp. 374 Midland Ave. Saddle Brook, N.J. USA) were coated with 50 μl of serial dilutions of the various recombinant β2GPI, in PBS, at room temperature for 2 hours. The plates were washed three times with PBS and blocked with 75 μl of a 1% gelatin (Sigma #G-2500) in PBS for one hour room temperature. […] The plates were washed three times with PBS, 50 μl of alkaline phosphatase conjugated anti-immunoglobulin (anti-human IgG, gamma chain specific, Zymed #62-8422) or anti-rabbit IgG (Zymed #62-6122) diluted appropriately in 1% gelatin was added and incubated at 37° C. for one hour. The plates were washed three times with PBS, 50 μl of alkaline phosphatase PPMP chromogenic substrate solution was added and incubated for 30 minutes at room temperature. The optical density, at 550 nm, was determined by reading the plates in a microplate autoreader (Bio-Teck Instruments, model EL311).
(§2) Seven to nine different recombinant β2GPI mutant proteins were examined to determine if they could support the direct binding of affinity purified β2GPI-dependent antiphospholipid antibody preparations in the absence of anionic phospholipid. All recombinant mutant β2GPI were assayed with affinity purified β2GPI-dependent antiphospholipid antibody preparations from 11 different patients. Each mutant recombinant β2GPI protein was tested, in a dose dependent fashion and GST-6his was included as a negative control. The recombinant mutant β2GPI proteins were bound to nickel coated microtiter plates via their 6-his tail. All recombinant mutant β2GPI proteins tested bound rabbit anti-β2GPI showing that they were assessable by antibody (FIG. 5).

[2] = tested on: rabbit anti-β2GPI; test: Direct binding ELISA, nickel chelate-coated wells, rabbit antibody; details: O.D. at 550 nm
Experimental: as §1, §2

[3] = tested on: affinity purified β2GPI-dependent antiphospholipid antibody; test: Competitive inhibition ELISA: recombinant β2GPI proteins compete for antibody binding to coated full length recombinant β2GPI; parameters: species or system human; details: for IC50: read-out: 50% (concentration to give 50% inhibition)
Experimental: Microtiter plates (MaxiSorp™, Nalge Nunc International, Denmark) were coated with 50 μl of full length recombinant β2GPI at 10 μg/ml in 0.1 M bicarbonate, pH 9.5, incubated overnight at 4° C., washed three times with 0.15 M PBS, pH 7.2, and blocked for one hour at room temperature with 75 μl of 2% Non-fat Dried Milk (Carnation, 2% NFDM). Test inhibitors were diluted in 2% NFDM and 25 μl of each dilution was added to coated wells. Affinity purified β2GPI-dependent antiphospholipid antibody was diluted in 2% NFDM and 25 μl, of a constant concentration, was added to the wells, including a group of wells that had no inhibitor, which acted as the positive controls. The contents of the wells were mixed and the plates were incubated at 37° C. for one hour. The plates were washed three times with PBS, 50 μl of alkaline phosphatase conjugated anti-human IgG, gamma chain specific, (Zymed #62-8422) diluted appropriately in 2% NFDM was added and incubated at 37° C. for one hour. The plates were washed three times with PBS, 50 μl of alkaline phosphatase PPMP chromogenic substrate solution was added and incubated for 30 minutes, at room temperature. The Optical Density, at 550 nm, was determined by reading the plates in a microplate autoreader (Bio-Teck Instruments, model EL3 11). The percent inhibition was determined by dividing the OD550 obtained in the presence of inhibitor by the mean OD550 obtained from the wells without inhibitor and then multiplying by 100 (more particularly, [mean A550 obtained from control wells without inhibitor less A550 of background] minus [A550 obtained in presence of inhibitor less A550 of background] divided by [mean A550 obtained from control wells without inhibitor less A550 of background] times 100).
Seven to nine different recombinant β2GPI mutant proteins were used to determine the antigenic specificity of affinity purified β2GPI-dependent antiphospholipid antibody preparations from 13 different patients. Each mutant recombinant β2GPI protein was tested, in a dose dependent fashion, for its ability to inhibit affinity purified β2GPI-dependent antiphospholipid antibody from binding to full length recombinant β2GPI. The following values were also observed for domain 1 only recombinant protein (1 - - - -; see Table 2 for designations): […]

[4] = tested on: antiphospholipid antibody in plasma from patient 6501; test: Competitive antibody binding ELISA with patient plasma on β2GPI coated plates; parameters: species or system human; details: plasma patient 6501, 1:200
Experimental: Nunc Maxisorp microplates (Nalge Nunc International, Denmark) were coated with 100 μL/well of β2GPI at 2.5 μg/mL in PBS, incubated for 2 hours at room temperature, and blocked for 2 hours at room temperature with 250 μl/well of 2% nonfat milk with […] (Sigma Chemical Co.). […] After incubation for one hour at room temperature the plates were washed 5× with TBS. To each well was added 100 μL of alkaline phosphatase-conjugated anti-human IgG, gamma chain specific (Zymed) diluted 1:1000 in 2% nonfat milk with 0.4% Tween-80. After one hour at room temperature the plates were washed 5× with TBS. To each well was added 100 μl PPMP chromogenic substrate solution for color development at room temperature. Optical absorbance per well was determined at A550nm in a commercial microplate reader (Bio-Tek Instruments EL3 11).

B1: ---45: recombinant β2GPI deletion mutant with domains 4, 5 (protein)
chain: GREVKCPFPSRPDNGFVNYPAKPTLYYKDKATFGCHDGYSLDGPEEIECTKLGNWSAMPSCKASCKLPVKKATVVYQGERVKIQEKFKNGMLHGDKVSFFCKNKEKKCSYTEDAQCIDGTIEVPKCFKEHSSLAFWKTDASDVKPCGHHHHHH
Maximum O.D. ([1]; Ab 6203): 0.142 | Maximum O.D. ([1]; Ab 6501): 0.086 | Maximum O.D. ([1]; Ab 6626): 0.086 | Maximum O.D. ([1]; Ab 6632): 0.000 | Maximum O.D. ([1]; Ab 6641): 0.112 | Maximum O.D. ([1]; Ab 6652): 0.013 | Maximum O.D. ([1]; Ab 6701): 0.000 | Maximum O.D. ([1]; Ab 7008): 0.030 | Maximum O.D. ([1]; Ab 7015): 0.167 | Maximum O.D. ([1]; Ab 7101): 0.167 | Maximum O.D. [2]: 1.941 | Max (maximum inhibition observed at concentrations tested) ([3]; Ab 6203): 10% | IC50 ([3]; Ab 6203): > 40 µM | Max (maximum inhibition observed at concentrations tested) ([3]; Ab 6501): 15% | IC50 ([3]; Ab 6501): > 40 µM | Max (maximum inhibition observed at concentrations tested) ([3]; Ab 6509): 20% | IC50 ([3]; Ab 6509): > 5 µM | Max (maximum inhibition observed at concentrations tested) ([3]; Ab 6626): 15% | IC50 ([3]; Ab 6626): > 40 µM | Max (maximum inhibition observed at concentrations tested) ([3]; Ab 6632): 20% | IC50 ([3]; Ab 6632): > 40 µM | Max (maximum inhibition observed at concentrations tested) ([3]; Ab 6641): 20% | IC50 ([3]; Ab 6641): > 5 µM | Max (maximum inhibition observed at concentrations tested) ([3]; Ab 6644): 10% | IC50 ([3]; Ab 6644): > 40 µM | Max (maximum inhibition observed at concentrations tested) ([3]; Ab 6652): 20% | IC50 ([3]; Ab 6652): > 5 µM | Max (maximum inhibition observed at concentrations tested) ([3]; Ab 6701): 15% | IC50 ([3]; Ab 6701): > 5 µM | Max (maximum inhibition observed at concentrations tested) ([3]; Ab 7008): 20% | IC50 ([3]; Ab 7008): > 40 µM | Max (maximum inhibition observed at concentrations tested) ([3]; Ab 7015): 10% | IC50 ([3]; Ab 7015): > 40 µM | Max (maximum inhibition observed at concentrations tested) ([3]; Ab 7101): 5% | IC50 ([3]; Ab 7101): > 40 µM | Max (maximum inhibition observed at concentrations tested) ([3]; Ab 7104): 5% | IC50 ([3]; Ab 7104): > 40 µM

B2: Reduced and alkylated domain 1: β2GPI domain 1 polypeptide that had been reduced and alkylated, negative control (protein)
chain: GRTCPKPDDLPFSTVVPLKTFYEPGEEITYSCKPGYVSRGGMRKFICPLTGLWPINTLKCTPRV
modifications: also: reduced and alkylated cysteines, alkylating agent not given here
notes: β2GPI domain 1 polypeptide that had been reduced and alkylated, negative control
competition for antiphospholipid antibody binding to β2GPI [4]: no such competition
